Laboratory results taken from paper PMC8431534.

Target: Myc-tagged PTK7 (Xenopus protein tyrosine kinase 7, full length) (Xenopus)
Assay: co-IP; HEK293 cells co-transfected with Myc-tagged PTK7 and GFP-tagged constructs; immunoprecipitation with anti-Myc, Dynabeads Protein G, Western blot (Figure 5B)

ΔkPTK7-GFP (Xenopus Ptk7 with the kinase domain deleted, GFP-tagged) (receptor)
quantity co-precipitated with full-length PTK7 in respect to input, densitometry, relative to PTK7 = 1 (relative to PTK7 = 1): 2.6
